Laboratory results from patent US20120269826A1.

Target: CD3/TCR complex on mouse T cells (mouse) (UniProt P22646)
Experiment: cell-based or functional assay

Chain of UniProt P22646 (P22646 22-189, chain 1 of 4): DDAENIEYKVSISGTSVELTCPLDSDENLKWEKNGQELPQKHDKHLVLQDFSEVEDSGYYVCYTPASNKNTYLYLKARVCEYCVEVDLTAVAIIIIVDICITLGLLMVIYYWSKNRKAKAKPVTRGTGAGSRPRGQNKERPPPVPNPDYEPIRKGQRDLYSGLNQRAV
Chain of UniProt P22646 (P11942 23-182, chain 2 of 4, further chain): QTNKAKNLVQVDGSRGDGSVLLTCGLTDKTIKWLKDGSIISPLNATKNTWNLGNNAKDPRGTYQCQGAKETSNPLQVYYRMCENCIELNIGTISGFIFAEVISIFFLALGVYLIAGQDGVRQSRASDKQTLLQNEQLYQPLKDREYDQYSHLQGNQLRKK
Chain of UniProt P22646 (P04235 22-173, chain 3 of 4, further chain): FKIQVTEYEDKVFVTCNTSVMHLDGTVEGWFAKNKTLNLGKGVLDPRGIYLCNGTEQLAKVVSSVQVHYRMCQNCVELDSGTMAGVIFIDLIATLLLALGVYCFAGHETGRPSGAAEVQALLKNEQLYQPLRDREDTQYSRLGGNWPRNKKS
Chain of UniProt P22646 (P24161 22-164, chain 4 of 4, further chain): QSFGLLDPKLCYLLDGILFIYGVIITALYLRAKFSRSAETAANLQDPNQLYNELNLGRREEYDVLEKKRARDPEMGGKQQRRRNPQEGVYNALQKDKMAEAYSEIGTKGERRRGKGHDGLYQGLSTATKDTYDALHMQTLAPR

## anti-CD3 mAb F(ab′)2 (hamster anti-mouse CD3 mAb, clone 145-2C11)
  CD3/TCR-complex expression 24 hr after dose 4, 5 µg dose, Study A (% of baseline): 50
  CD3/TCR-complex expression 24 hr after dose 4, 25 µg dose, Study A (% of baseline): 12
  percentage of CD3/TCR-complex modulation after the fourth dose, 1 µg (4×/72 hr) dose regimen, BALB/c mice: 19.7%
  percentage of CD3/TCR-complex modulation after the fourth dose, 2 µg (4×/72 hr) dose regimen, BALB/c mice: 30.3%
